{
  "source": "paper PMC6175577",
  "about": "(2018)",
  "test_in_all_cases": "FP",
  "key": {"[1]": {"target": "T1, TOPBP1-BRCT0,1,2 segment, wild type (recombinant, fluorescence polarisation) ( (human and chicken TOPBP1 …))", "T1 chain": "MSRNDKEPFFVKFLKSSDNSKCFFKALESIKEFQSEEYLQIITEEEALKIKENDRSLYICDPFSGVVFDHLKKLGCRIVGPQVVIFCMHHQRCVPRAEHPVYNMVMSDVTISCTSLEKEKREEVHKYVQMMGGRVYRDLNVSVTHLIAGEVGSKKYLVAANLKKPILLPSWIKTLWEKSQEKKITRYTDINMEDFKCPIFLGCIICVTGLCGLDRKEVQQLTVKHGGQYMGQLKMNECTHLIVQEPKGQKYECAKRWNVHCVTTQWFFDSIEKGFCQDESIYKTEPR"}, "[2]": {"target": "T2, Rad4-BRCT1,2 segment, wild type (recombinant, fluorescence polarisation) (S. pombe, UniProt P32372 1-186)", "T2 chain": "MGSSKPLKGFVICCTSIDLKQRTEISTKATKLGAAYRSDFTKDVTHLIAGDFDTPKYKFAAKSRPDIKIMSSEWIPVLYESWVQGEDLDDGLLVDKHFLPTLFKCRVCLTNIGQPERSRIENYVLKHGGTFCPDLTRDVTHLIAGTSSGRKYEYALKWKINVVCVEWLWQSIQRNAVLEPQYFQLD"}, "[3]": {"target": "T3, S. pombe Nbs1 (S. pombe, UniProt O43070 1-613)", "T3 chain": "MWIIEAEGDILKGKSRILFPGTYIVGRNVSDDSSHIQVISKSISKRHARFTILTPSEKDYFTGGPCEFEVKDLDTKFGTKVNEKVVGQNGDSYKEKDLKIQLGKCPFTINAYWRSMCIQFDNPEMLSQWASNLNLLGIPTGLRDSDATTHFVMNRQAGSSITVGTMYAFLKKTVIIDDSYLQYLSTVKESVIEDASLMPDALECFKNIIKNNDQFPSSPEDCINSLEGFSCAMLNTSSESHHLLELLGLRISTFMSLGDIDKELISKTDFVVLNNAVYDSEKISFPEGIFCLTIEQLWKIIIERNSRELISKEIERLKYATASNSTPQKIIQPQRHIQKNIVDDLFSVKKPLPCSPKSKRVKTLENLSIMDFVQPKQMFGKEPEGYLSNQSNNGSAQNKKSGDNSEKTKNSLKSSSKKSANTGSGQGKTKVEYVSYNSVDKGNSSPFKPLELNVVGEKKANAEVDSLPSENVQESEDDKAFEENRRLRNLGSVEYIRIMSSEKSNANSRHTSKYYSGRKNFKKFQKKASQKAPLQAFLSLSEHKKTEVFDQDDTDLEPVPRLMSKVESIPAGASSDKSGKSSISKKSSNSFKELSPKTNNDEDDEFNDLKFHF"}, "[4]": {"target": "T4, TOPBP1-BRCT4,5 segment ( (human and chicken TOPBP1 …))", "T4 chain": "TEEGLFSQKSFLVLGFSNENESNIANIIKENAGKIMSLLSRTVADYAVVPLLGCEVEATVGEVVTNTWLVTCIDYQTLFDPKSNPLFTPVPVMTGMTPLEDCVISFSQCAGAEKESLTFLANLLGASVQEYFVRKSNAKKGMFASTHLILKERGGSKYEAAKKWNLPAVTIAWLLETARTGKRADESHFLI"}, "[5]": {"target": "T5, TOPBP1-BRCT0,1,2 K250E (BRCT2 phosphate-binding site mutant) ( (human and chicken TOPBP1 …))", "T5 chain": "T1 chain with K250E"}, "[6]": {"target": "T1, TOPBP1-BRCT0,1,2 segment, wild type …"}, "[7]": {"target": "T6, TOPBP1-BRCT7,8 ( (human and chicken TOPBP1 …))", "T6 chain": "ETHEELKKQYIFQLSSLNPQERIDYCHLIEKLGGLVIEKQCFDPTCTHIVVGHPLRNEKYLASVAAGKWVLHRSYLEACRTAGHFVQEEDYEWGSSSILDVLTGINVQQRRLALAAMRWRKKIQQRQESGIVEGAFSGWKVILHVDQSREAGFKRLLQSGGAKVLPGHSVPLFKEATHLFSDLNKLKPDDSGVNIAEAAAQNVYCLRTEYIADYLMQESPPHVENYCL"}},
  "note": "Residue numbers refer to the chain shown, from its start. Read-outs that look alike come from different tables or passages of the source. Where no end group is shown, it is not given here. [ ]: non-standard residue; d: D form. pT = C[C@@H](OP(=O)(O)O)[C@H](N)C(=O)O; pS = N[C@@H](COP(=O)(O)O)C(=O)O",
  "data": [
    {"binder": "fluorescein-GYGLTKSVAE[pT]PVHKQIS (also: phosphothreonine at 969 (T5 or T11))", "note": "[Treslin pT969 fluorescein-labelled phosphopeptide]", "values": [
      {"measurement": "Kd", "setting": "[1]", "result": 940, "unit": "nM"}
    ]},
    {"binder": "fluorescein-GYGGVMTVPN[pT]PQKPNLQ (also: phosphothreonine at 113 (T7 or T11))", "note": "[Mdb1 pT113 fluorescein-labelled phosphopeptide]", "values": [
      {"measurement": "Kd", "setting": "[2]", "result": 1310, "unit": "nM"}
    ]},
    {"binder": "fluorescein-GYGVEGDHS[pS]D[pT]EEEVVS", "note": "[Mdb1 pS216, pT218 fluorescein-labelled phosphopeptide (SDT site)]", "values": [
      {"measurement": "Kd", "setting": "[3]", "result": 820, "unit": "nM"}
    ]},
    {"binder": "fluorescein-GYGDTDFVPP[pS]PEEIISA (also: phosphoserine at 304 (S11 or S17))", "note": "[BLM pS304 fluorescein-labelled phosphopeptide]", "values": [
      {"measurement": "Kd", "setting": "[4]", "result": 3460, "unit": "nM"}
    ]},
    {"binder": "fluorescein-GYGGPVLVKD[pT]PEDKYGI", "note": "[RHNO1 pT202 fluorescein-labelled phosphopeptide]", "values": [
      {"measurement": "Kd", "setting": "[5]", "result": "< 200", "unit": "nM"},
      {"measurement": "Kd", "setting": "[6]", "result": "< 200", "unit": "nM"}
    ]},
    {"binder": "fluorescein-GYGEDESIYF[pT]PELYDPE", "note": "[FANCJ pT1133 fluorescein-labelled phosphopeptide]", "values": [
      {"measurement": "Kd", "setting": "[7]", "result": 140, "unit": "nM"}
    ]},
    {"binder": "fluorescein-GYGDIGVVEE[pS]PEKGDEI", "note": "[Treslin pS1001 fluorescein-labelled phosphopeptide]", "values": [
      {"measurement": "Kd", "setting": "[1]", "result": 600, "unit": "nM"}
    ]}
  ]
}
